Assay results reported in patent US20240270851A1 (US Dept. of Health and Human Services, published 2024).
One block for each binder: values may come before it.

Assays:
[1] = molecular target: T1, mouse PD-L1-His (mouse, UniProt Q9EP73 19-237); test: monoclonal phage ELISA
T1 construct: Bought recombinant protein; also called mPD-L1; recombinant mouse PD-L1-His; not shown: His tag

[2] = molecular target: T2, mouse PD-L1-hFc (mouse, UniProt Q9EP73 19-237, limits assumed); test: monoclonal phage ELISA on coated antigen, detected with anti-M13-HRP
T2 construct: also called mPD-L1 hFc-tag format; not shown: human Fc tag (hFc)
Method: (§1) The phage ELISA was performed as previously described (Feng et al., Antib Ther 2019; 2(1):1-11). Briefly, a Nunc 96-well Maxisorp plate was coated with 5 μg/ml antigenic proteins, including mouse PD-L1-His, mouse PD-L1-hFc, human PD-L1-His, human PD-L1-hFc, and the irrelevant antigen human IgG and PBS in 50 μl PBS per well overnight at 4° C. The plate was blocked with 2% BSA in PBS for 1 hour at room temperature. Pre-blocked phage supernatant was then added into the plate. The binding activity was determined with a horseradish peroxidase (HRP)-conjugated mouse anti-M13 antibody (GE Healthcare).

[3] = molecular target: T1, mouse PD-L1-His; test: as above
Method: as §1

[4] = molecular target: T3, peptide #19 of the hPD-L1 ECD peptide array (human); test: peptide-scanning ELISA on 24 coated hPD-L1 ECD peptides, detected with anti-flag-HRP
T3 construct: 18-mer synthetic peptide from human PD-L1
T3 peptide: TTNSKREEKLFNVTSTLR
Method: To predict the binding epitope of anti-PD-L1 nanobodies, a total of 24 peptides were designed based on the hPD-L1 ECD amino acid sequence. Each synthesized peptide is 18 amino acids in length with 9 amino acids of overlap, which allows the minimum antigenic region of hPD-L1 ECD recognized by each VNAR to be narrowed down by step-by-step peptide mapping onto a 9-mer peptide epitope. The ELISA was performed as previously described. In brief, the 24 peptides were coated into individual wells of a 96-well Maxisorp plate. […] The binding activity was determined by ODA450.

[5] = molecular target: T4, mouse PD-L1 on murine melanoma cell line B8979HC (mouse, UniProt Q9EP73 19-290); test: flow cytometry on murine melanoma cells B8979HC (column 'Mouse')
T4 construct: whole, on cells; also called native PD-L1; mouse antigen

[6] = molecular target: T5, human PD-L1 on MDA-MB-231 cells (human, UniProt Q9NZQ7 19-290); test: flow cytometry on MDA-MB-231 cells (column 'Human')
T5 construct: whole, on cells; also called native PD-L1; human antigen

[7] = molecular target: T6, human PD-L1-hFc (human, UniProt Q9NZQ7 19-238); test: monoclonal phage ELISA on coated antigen, detected with anti-M13-HRP
T6 construct: also called hPD-L1 hFc-tag format; not shown: human Fc tag (hFc)
Method: as §1

[8] = molecular target: T7, human PD-L1-His (human, UniProt Q9NZQ7 19-238); test: as above
T7 construct: also called hPD-L1-His; hPD-L1 His-tag format; not shown: His tag
Method: as §1

[9] = molecular target: T8, human PD-L1 (hPD-L1) protein (human, UniProt Q9NZQ7 19-238); test: BLI (Octet), PD-L1 protein loaded on a Ni-NTA biosensor, VNAR binding step
T8 construct: also called hPD-L1 ECD

[10] = molecular target: T9, human B7-H3 (human, UniProt Q5ZPR3 29-461, limits assumed); test: ELISA on coated human B7-H3
T9 sequence (looked up): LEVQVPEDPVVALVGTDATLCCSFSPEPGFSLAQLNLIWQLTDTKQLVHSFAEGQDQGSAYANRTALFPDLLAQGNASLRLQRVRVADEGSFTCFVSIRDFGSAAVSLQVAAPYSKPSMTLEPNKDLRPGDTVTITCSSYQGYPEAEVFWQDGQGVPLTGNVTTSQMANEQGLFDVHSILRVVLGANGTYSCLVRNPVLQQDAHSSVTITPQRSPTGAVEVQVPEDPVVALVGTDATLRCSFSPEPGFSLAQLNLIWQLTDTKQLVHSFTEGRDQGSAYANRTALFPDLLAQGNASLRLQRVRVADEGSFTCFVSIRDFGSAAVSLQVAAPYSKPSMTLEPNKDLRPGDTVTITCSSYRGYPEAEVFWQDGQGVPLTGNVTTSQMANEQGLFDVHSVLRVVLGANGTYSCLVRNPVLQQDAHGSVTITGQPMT

[11] = molecular target: T7, human PD-L1-His; test: BLI (Octet), VNAR-hFc with hPD-L1-His, Ni-NTA sensor; at 50 nM; at a concentration of 50 nM
[12] = molecular target: T7, human PD-L1-His; test: BLI (Octet), VNAR-hFc with hPD-L1-His, Ni-NTA sensor; at 100 nM; at a concentration of 100 nM (printed '100 nm')

T1 sequence (Q9EP73 19-237 limits assumed): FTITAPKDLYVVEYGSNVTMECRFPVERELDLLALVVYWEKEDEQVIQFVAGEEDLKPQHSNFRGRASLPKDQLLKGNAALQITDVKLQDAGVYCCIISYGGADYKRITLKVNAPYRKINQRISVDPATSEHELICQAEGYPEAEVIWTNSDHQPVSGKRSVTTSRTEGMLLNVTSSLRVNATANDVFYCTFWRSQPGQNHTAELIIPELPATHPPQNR
T2 sequence (Q9EP73 19-237 limits assumed): as above
T7 sequence (Q9NZQ7 19-238 limits assumed): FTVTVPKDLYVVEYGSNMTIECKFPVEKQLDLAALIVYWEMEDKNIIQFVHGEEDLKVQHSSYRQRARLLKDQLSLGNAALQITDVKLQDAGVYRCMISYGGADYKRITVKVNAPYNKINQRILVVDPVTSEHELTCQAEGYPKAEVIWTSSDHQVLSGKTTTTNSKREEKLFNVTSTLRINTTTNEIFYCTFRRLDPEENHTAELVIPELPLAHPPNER
T4 sequence (Q9EP73 19-290): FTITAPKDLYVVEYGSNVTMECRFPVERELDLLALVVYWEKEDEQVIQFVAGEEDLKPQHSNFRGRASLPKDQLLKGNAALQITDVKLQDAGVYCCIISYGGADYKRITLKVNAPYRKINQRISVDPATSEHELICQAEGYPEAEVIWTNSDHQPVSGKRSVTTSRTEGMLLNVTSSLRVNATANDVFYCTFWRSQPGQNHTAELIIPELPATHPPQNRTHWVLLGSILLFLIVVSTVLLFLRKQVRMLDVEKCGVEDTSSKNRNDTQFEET
T5 sequence (Q9NZQ7 19-290): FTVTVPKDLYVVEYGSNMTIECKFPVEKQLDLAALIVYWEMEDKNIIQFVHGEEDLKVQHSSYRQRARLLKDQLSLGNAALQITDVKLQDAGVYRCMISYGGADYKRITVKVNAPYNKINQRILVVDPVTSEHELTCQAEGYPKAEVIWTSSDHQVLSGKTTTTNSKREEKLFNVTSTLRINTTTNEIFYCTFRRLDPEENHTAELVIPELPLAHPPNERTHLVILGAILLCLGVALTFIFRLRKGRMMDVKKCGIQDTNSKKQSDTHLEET
T6 sequence (Q9NZQ7 19-238 limits assumed): as the sequence (Q9NZQ7 19-238 limits assumed) above
T8 sequence (Q9NZQ7 19-238 limits assumed): as above

B1: Shark VNAR A1 (VNAR)
VNAR: ARVDQTPRSVTKETGESLTINCVLRDTNYALGSTYWYRKKSGSTNEESISKGGRYVETVNSGSKSFSLRINDLTVEDSGTYRCKTSSKPLLVSHNVWSAWTEYGGGTVVTVN
binding result [1]: binds

B2: Shark VNAR A6 (VNAR)
VNAR: ARVDQTPQTITKETGESLTINCVLRDTSYALGSTYWYRKKSGSTNEESISKGGRYVETVNSGSKSFSLRINDLRVEDSGTYRCKYSSSWQKATEGVWEAMTEYGGGTVVTVN
binding result [1]: binds

B3: Shark VNAR D12 (VNAR)
VNAR: ARVDQTPRSVTKETGESLTINCVLRDTNYALGSTYWYRKKSGSTNEESISKGGRYVETVNSGSKSFSLRINDLTVEDSGTYRCKHQSSWRRQAPRVMEMQTLYGGGTVVTVN
binding result [1]: binds

B4: Shark VNAR A7 (VNAR)
VNAR: ARVDQTPRSVTKETGESLTINCVLRDTSYALGSTYWYRKKLGSTNEESISKGGRYVETVNSGSKSFSLRINDLTVEDSGTYRCKMNQRYPCDNNSWWSLYCGTTVYGGGTVVTVN
binding result [1]: binds

B5: Shark VNAR C4 (VNAR)
VNAR: ARVDQTPRSVTKETGESLTINCVLRDTNYALGSTYWYRKKSGSTNEESISKGGRYVETVNSGSKSFSLRINDLTVEDSGTYRCKQSASLWIPNLLRWVPVISYGGGTVVTVN
binding result [1]: binds

B6: Shark VNAR A3 (VNAR)
VNAR: ARVDQTPQTITKETGESLTINCVLRDSNYALGSTYWYRKKSGSTNEESISKGGRYVETVNSGSKSFSLRINDLTVEDSGTYRCKTQKAIPCNMNGYVCGVTIYGGGTVVTVN
binding result [1]: binds

B7: Shark VNAR A11 (VNAR)
VNAR: ARVDQTPRSVTKETGESLTINCVLRDTSYALGSTYWYRKKSGSTNEESISKGGRYVETVNSGSKSFSLRINDLTVEDSGTYRCKFKSNTEFLNPLTVSMSTIYGGGTVVTVN
notes: Shark VNAR single-domain antibody
binding result [2]: binds | binding result [3]: binds

B9: Shark VNAR F5 (VNAR)
VNAR: ARVDQTPRSVTKETGESLTINCVLRDTNYALGSTYWYRKKLGSTNEESISKGGRYVETVNSGSKSFSLRINDLTVEDSGTYRCKNLGHPMYIAGAICRPLPIYGGGTVVTVN
notes: as for B7
binding result [5]: binds | binding result [6]: binds | binding result [7]: binds | binding result [2]: binds | binding result [3]: binds | binding result [8]: binds

B10: F5-His-flag (VNAR)
VNAR: ARVDQTPRSVTKETGESLTINCVLRDTNYALGSTYWYRKKLGSTNEESISKGGRYVETVNSGSKSFSLRINDLTVEDSGTYRCKNLGHPMYIAGAICRPLPIYGGGTVVTVN
notes: Soluble VNAR F5 with His and flag tags, used at 5 ug/ml in the peptide-scanning ELISA; also called nanobody F5 (peptide scanning); not shown: His tag and flag tag
binding result [4]: binds

B11: F5-hFc (Fc fusion)
chain: ARVDQTPRSVTKETGESLTINCVLRDTNYALGSTYWYRKKLGSTNEESISKGGRYVETVNSGSKSFSLRINDLTVEDSGTYRCKNLGHPMYIAGAICRPLPIYGGGTVVTVN
notes: VNAR-hFc fusion used on the Octet; also called F5 VNAR-hFc fusion protein; not shown: human Fc (hFc)
binding result [9]: binds

B14: B2-hFc (Fc fusion)
chain: ARVDQTPRSVTKETGESLTINCVLRDSSYALGSTYWYRKKSGSTNEESISKGGRYVETVNSGSKSFSLRINDLTVEDSGTYRCKYTSRLRREGPLSWDGNTVYGGGTVVTVN
notes: also called B2 VNAR-hFc fusion protein; not shown: human Fc (hFc)
Kd [11]: 1.4 nM | Kd [12]: 1.7 nM

Other lines, results leading:

binding result [4]: no binding (tested: 5 µg/ml)
B8: A11-His-flag (VNAR)
VNAR: ARVDQTPRSVTKETGESLTINCVLRDTSYALGSTYWYRKKSGSTNEESISKGGRYVETVNSGSKSFSLRINDLTVEDSGTYRCKFKSNTEFLNPLTVSMSTIYGGGTVVTVN
notes: Soluble VNAR A11 with His and flag tags, used at 5 ug/ml in the peptide-scanning ELISA; also called nanobody A11 (peptide scanning); not shown: His tag and flag tag

binding result [1]: binds
B12: Shark VNAR A9 (VNAR)
VNAR: ARVDQTPQTITKETGESLTINCVLRDTNYALGSTYWYRKKLGSTNEESISKGGRYVETVNSGSKSFSLRINDLTVEDSGTYRCKNTSPWLTYSPWTVSGQTSYGGGTVVTVN

binding result [5]: binds | binding result [2]: binds | binding result [3]: binds | binding result [10]: no binding
B13: Shark VNAR B2 (VNAR)
VNAR: ARVDQTPRSVTKETGESLTINCVLRDSSYALGSTYWYRKKSGSTNEESISKGGRYVETVNSGSKSFSLRINDLTVEDSGTYRCKYTSRLRREGPLSWDGNTVYGGGTVVTVN
notes: Shark VNAR single-domain antibody from the semi-synthetic 18AA CDR3 library; also called B2 nanobody; B2 clone

binding result [4]: binds
B15: B2-His-flag (VNAR)
VNAR: ARVDQTPRSVTKETGESLTINCVLRDSSYALGSTYWYRKKSGSTNEESISKGGRYVETVNSGSKSFSLRINDLTVEDSGTYRCKYTSRLRREGPLSWDGNTVYGGGTVVTVN
notes: Soluble VNAR B2 with His and flag tags, used at 5 ug/ml in the peptide-scanning ELISA; also called nanobody B2 (peptide scanning); not shown: His tag and flag tag

binding result [1]: binds
B16: Shark VNAR A2 (VNAR)
VNAR: ARVDQTPRSVTKETGESLTINCVLRDTSYALGSTYWYRKKLGSTNEESISKGGRYVETVNSGSKTFSLRINDLTVEDSGTYRCKVQTTWSYLSPYKIEFATVYGGGTVVTVN

binding result [1]: binds
B17: Shark VNAR A10 (VNAR)
VNAR: ARVDQTPRSVTKETGESLTINCVLRDTNYALGSTYWYRKKLGSTNEESISKGGRYVETVNSGSKSFSLRINDLTVEDSGTYRCKSTTPWNNLTSFTSERVTIYGGGTVVTVN
